Assay [1] has as its target T1, FcγRIa extracellular domain with C-terminal His tag (human, UniProt P12314 16-292).
T1 construct: extracellular domain; Expressed in FreeStyle293 cells; analyte in the SPR assay; also called FcgRI; 1a
Briefly: SPR (Biacore), relative binding, HeCon Ab = 100. On the technique in general: Surface plasmon resonance follows binding to a sensor surface in real time, without labels.

Assay [2] deals with T2, FcγRIIb extracellular domain with C-terminal His tag (human, UniProt P31994 43-217).
T2 construct: extracellular domain; Expressed in FreeStyle293 cells; analyte in the SPR assay; also called FcgRIIb; 2b
T2 sequence (looked up): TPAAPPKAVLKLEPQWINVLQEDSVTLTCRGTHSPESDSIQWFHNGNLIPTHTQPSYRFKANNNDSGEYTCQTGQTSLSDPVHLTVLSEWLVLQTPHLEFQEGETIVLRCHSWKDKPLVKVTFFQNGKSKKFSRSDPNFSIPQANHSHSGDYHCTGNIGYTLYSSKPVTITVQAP
Kind of assay: SPR (Biacore), relative binding, HeCon Ab = 100.

The target in the next assay is T3, FcγRIa (human, UniProt P12314 16-292).
T3 construct: extracellular domain; Soluble extracellular domain expressed in FreeStyle293 cells, used as analyte in Biacore; also called FcgRI; 1a; not shown: His tag attached to the C terminus
Kind of assay: SPR (Biacore); He Ab vs HeCon Ab GpH7-A5/GpH7-B3/GpL16-k0. As to the method:
Analysis of interaction between objective antibody and the FcγR was carried out using Biacore T100 (GE Healthcare). HBS-EP+ (GE Healthcare) was used as the running buffer, and the measurement temperature was set to 25° C. Chips produced by immobilizing the antigen peptide by the amine coupling method to a Series S Sencor Chip CM5 (GE Healthcare), or alternatively, chips produced by allowing preliminarily biotinylated antigen peptides to interact with and immobilize onto a Series S Sensor Chip SA (certified) (GE Healthcare) were used. Antibodies of interest were captured onto an antigen peptide-immobilized chip, and allowed to interact to each FcγR diluted with running buffer. To regenerate and repeatedly use the chip, the antibodies captured on the chip were washed off by reacting 10 mM glycine-HCl, pH 1.5.

A further assay concerns the target T4, FcγRIIb (human, UniProt P31994 43-217).
T4 construct: extracellular domain; also called FcgRIIb; 2b
T4 sequence (looked up): T2 sequence (looked up)
Kind of assay: SPR (Biacore), relative binding.

T3 sequence (P12314 16-292): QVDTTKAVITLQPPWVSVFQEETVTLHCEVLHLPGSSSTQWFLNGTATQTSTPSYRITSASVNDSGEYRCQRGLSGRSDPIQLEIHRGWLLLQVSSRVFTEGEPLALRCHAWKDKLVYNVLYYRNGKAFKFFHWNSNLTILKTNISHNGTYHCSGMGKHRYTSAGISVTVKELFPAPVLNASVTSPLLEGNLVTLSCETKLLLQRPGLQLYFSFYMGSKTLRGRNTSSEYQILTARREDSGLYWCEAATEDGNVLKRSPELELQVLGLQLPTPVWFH
T1 sequence (P12314 16-292): as above

B1: GpH7-A5/GpH7-B3 variant E269_01G/GpL16-k0 (He Ab) (antibody, human IgG1, kappa)
heavy 1: not shown
heavy 2: not shown
light: DIVMTQSPLSLPVTPGEPASISCQASESLVHSNRNTYLHWYLQKPGQSPQLLIYKVSNRFSGVPDRFSGSGSGTDFTLKISRVEAEDVGVYYCSQNTHVPPTFGQGTKVEIERTVAAPSVFIFPPSDEQLKSGTASVVCLLNNFYPREAKVQWKVDNALQSGNSQESVTEQDSKDSTYSLSSTLTLSKADYEKHKVYACEVTHQGLSSPVTKSFNRGEC
notes: He Ab: mutation in one H chain only
For B1, the He/Con_1a in assay [1] was 104 % of HeCon Ab (=100). In assay [2], the He/Con_2b is 51.5 % of HeCon Ab (=100).

B2: GpH7-A5/GpH7-B3 variant S324_16H/GpL16-k0 (antibody, human IgG1, kappa)
heavy 1: not shown
heavy 2: not shown
light: B1 light
notes: also called He Ab S324_16H
On to B2, for which the He/Con_1a in the assay with FcγRIa was 113 relative binding, control = 100.

B3: GpH7-A5/GpH7-B3 variant S324_11K/GpL16-k0 (antibody, human IgG1, kappa)
heavy 1: not shown
heavy 2: not shown
light: B1 light
notes: also called He Ab S324_11K
For the molecule B3, the He/Con_1a in the assay with FcγRIa was 102 relative binding, control = 100.

B4: GpH7-A5/GpH7-B3 variant T335_06M/GpL16-k0 (antibody, human IgG1, kappa)
heavy 1: not shown
heavy 2: not shown
light: B1 light
notes: also called He Ab T335_06M
Take B4: the He/Con_1a with FcγRIa is 107 relative binding, control = 100.

B5: GpH7-A5/GpH7-B3 variant S337_08L/GpL16-k0 (antibody, human IgG1, kappa)
heavy 1: not shown
heavy 2: not shown
light: B1 light
notes: also called He Ab S337_08L
As to B5, the He/Con_1a with FcγRIa is 105 relative binding, control = 100.

B6: GpH7-A5/GpH7-B3 variant S324_12R/GpL16-k0 (antibody, human IgG1, kappa)
heavy 1: not shown
heavy 2: not shown
light: B1 light
notes: also called He Ab S324_12R
B6: the He/Con_1a with FcγRIa is 102 relative binding, control = 100.

B7: GpH7-A5/GpH7-B3 variant T335_04F/GpL16-k0 (antibody, human IgG1, kappa)
heavy 1: not shown
heavy 2: not shown
light: B1 light
notes: also called He Ab T335_04F
With B7, the He/Con_1a with FcγRIa is 105 relative binding, control = 100.

B8: GpH7-A5/GpH7-B3 variant T335_08L/GpL16-k0 (antibody, human IgG1, kappa)
heavy 1: not shown
heavy 2: not shown
light: B1 light
notes: also called He Ab T335_08L
As for B8, in the assay with FcγRIa, the He/Con_1a was 115 relative binding, control = 100.

B9: GpH7-A5/GpH7-B3 variant S324_14T/GpL16-k0 (antibody, human IgG1, kappa)
heavy 1: not shown
heavy 2: not shown
light: B1 light
notes: also called He Ab S324_14T
As for B9, in the assay with FcγRIa, the He/Con_1a was 121 relative binding, control = 100.

B10: GpH7-A5/GpH7-B3 variant S324_08L/GpL16-k0 (antibody, human IgG1, kappa)
heavy 1: not shown
heavy 2: not shown
light: B1 light
notes: also called He Ab S324_08L
B10: the He/Con_1a with FcγRIa is 103 relative binding, control = 100.

B11: GpH7-A5/GpH7-B3 variant S298_18N/GpL16-k0 (antibody, human IgG1, kappa)
heavy 1: not shown
heavy 2: not shown
light: B1 light
notes: also called He Ab S298_18N
Consider B11, for which the He/Con_1a in the assay with FcγRIa was 108 relative binding, control = 100.

B12: GpH7-A5/GpH7-B3 variant E269_02A/GpL16-k0 (He Ab) (antibody, human IgG1, kappa)
heavy 1: not shown
heavy 2: not shown
light: B1 light
notes: as for B1
For B12, the He/Con_1a in assay [1] is 104 % of HeCon Ab (=100). Further, the He/Con_2b in assay [2] is 49.9 % of HeCon Ab (=100).

B13: GpH7-A5/GpH7-B3 variant S337_07I/GpL16-k0 (antibody, human IgG1, kappa)
heavy 1: not shown
heavy 2: not shown
light: B1 light
notes: also called He Ab S337_07I
Turning to B13, the He/Con_1a with FcγRIa is 105 relative binding, control = 100.

B14: GpH7-A5/GpH7-B3 variant S324_20W/GpL16-k0 (antibody, human IgG1, kappa)
heavy 1: not shown
heavy 2: not shown
light: B1 light
notes: also called He Ab S324_20W
As for B14, the He/Con_1a with FcγRIa was 114 relative binding, control = 100.

B15: GpH7-A5/GpH7-B3 variant E269_03V/GpL16-k0 (He Ab) (antibody, human IgG1, kappa)
heavy 1: not shown
heavy 2: not shown
light: B1 light
notes: as for B1
Consider B15, for which the He/Con_1a in assay [1] is 103 % of HeCon Ab (=100). Besides, in assay [2], the He/Con_2b is 45.1 % of HeCon Ab (=100).

B16: GpH7-A5/GpH7-B3 variant Y300_12R/GpL16-k0 (antibody, human IgG1, kappa)
heavy 1: not shown
heavy 2: not shown
light: B1 light
notes: also called He Ab Y300_12R
As to B16, the He/Con_1a with FcγRIa is 105 relative binding, control = 100.

B17: GpH7-A5/GpH7-B3 variant S324_02A/GpL16-k0 (antibody, human IgG1, kappa)
heavy 1: not shown
heavy 2: not shown
light: B1 light
notes: also called He Ab S324_02A
Turning to B17, in the assay with FcγRIa, the He/Con_1a is 103 relative binding, control = 100.

B18: GpH7-A5/GpH7-B3 variant V266_20W/GpL16-k0 (antibody, human IgG1, kappa)
heavy 1: not shown
heavy 2: not shown
light: B1 light
notes: mutation in the GpH7-B3 chain only; also called He Ab
With B18, in the assay with FcγRIIb, the He/Con_2b is 71.9 % of GpH7-A5/GpH7-B3/GpL16-k0.

B19: GpH7-A5/GpH7-B3 variant S324_03V/GpL16-k0 (antibody, human IgG1, kappa)
heavy 1: not shown
heavy 2: not shown
light: B1 light
notes: also called He Ab S324_03V
Turning to B19, the He/Con_1a in the assay with FcγRIa is 104 relative binding, control = 100.

B20: GpH7-A5/GpH7-B3 variant S337_01G/GpL16-k0 (antibody, human IgG1, kappa)
heavy 1: not shown
heavy 2: not shown
light: B1 light
notes: also called He Ab S337_01G
With B20, the He/Con_1a in the assay with FcγRIa was 107 relative binding, control = 100.

B21: GpH7-A5/GpH7-B3 variant S298_19Q/GpL16-k0 (antibody, human IgG1, kappa)
heavy 1: not shown
heavy 2: not shown
light: B1 light
notes: also called He Ab S298_19Q
Turning to B21, in the assay with FcγRIa, the He/Con_1a is 109 relative binding, control = 100.

B22: GpH7-A5/GpH7-B3 variant D265_10E/GpL16-k0 (He Ab) (antibody, human IgG1, kappa)
heavy 1: not shown
heavy 2: not shown
light: B1 light
notes: as for B1
Turning to B22, the He/Con_1a in assay [1] was 101 % of HeCon Ab (=100). The He/Con_2b in assay [2] is 38.2 % of HeCon Ab (=100).

B23: GpH7-A5/GpH7-B3 variant T335_10E/GpL16-k0 (antibody, human IgG1, kappa)
heavy 1: not shown
heavy 2: not shown
light: B1 light
notes: also called He Ab T335_10E
Consider B23, for which the He/Con_1a with FcγRIa was 109 relative binding, control = 100.
